Assay results taken from publication PMC10090079.

How the values were obtained:
[1] = target: RhCas12f1 from Ruminiclostridium herbifermentans (Ruminiclostridium herbifermentans); assay: SEC; Cas12f1 RNP assembled in vitro at 4:3 molar ratio protein:sgRNA in buffer D (25 mM Tris-HCl pH 8.0, 150 mM NaCl, 2 mM DTT, 1 mM MgCl2) at 37 °C for 30 min; Superdex 200 Increase 10/300 equilibrated with buffer D; calibrated with Gel Filtration Standard (Bio-Rad); dimer in presence of sgRNA
[2] = target: OsCas12f1 from Oscillibacter sp. (Oscillibacter sp.); assay: as above

Row | stoichiometry N [1] | stoichiometry N [2] | Substance
1 | 2 |  | RhCas12f1 from Ruminiclostridium herbifermentans (enzyme)
2 |  | 2 | OsCas12f1 from Oscillibacter sp. (enzyme)
